Measured values from patent US20230365675A1 (published 2023).

B1: sdCD33_11 (VHH)
VHH: AVQLVESGGGLVQAGGSLRLSCAASGDTFANYAMGWFRQAPGKEREFVAAISWSDSSTHYADSVKGRFTIPRDNAKNAVYLQMDQLKPEDMAVYYCYAYIRGVGEVRYVDYWGQGTQVTVSS
notes: sdAb from a naive llama phage library; also called 430; sdAb430
B2: sdCD33_5 (VHH)
VHH: QVQLQESGGGLVQPGGSLRLSCAASGSVFSIYAMAWYRQAPGKQRELVAVITSGGATNYADSVKGRFTISRDIAKKTLYLQMNTLKPEDTAVYYCYAHLLIQPFDRFYDYWGQGTQVTVSS
notes: sdAb from a naive llama phage library; also called 413; sdAb413

Assays:
[1] = biological target: Biotinylated CD33 protein (UniProt P20138); assay: Octet competition on biotinylated CD33; competitor h195
[2] = biological target: Biotinylated CD33 protein (UniProt P20138); assay: Octet competition on biotinylated CD33; competitor 424
[3] = biological target: T1, Mutant CD33-GFP M3 (N99A) on 293FT cells (UniProt P20138 18-364); assay: FACS, mutant CD33-GFP on 293FT cells
T1 construct: whole, on cells; not shown: GFP fused to CD33

[4] = biological target: T2, Mutant CD33-GFP M2 (H45E) on 293FT cells (UniProt P20138 18-364); assay: FACS, mutant CD33-GFP on 293FT cells
T2 construct: whole, on cells; not shown: GFP fused to CD33

[5] = biological target: T3, Mutant CD33-GFP M1 (W22A) on 293FT cells (UniProt P20138 18-364); assay: FACS, mutant CD33-GFP on 293FT cells
T3 construct: whole, on cells; not shown: GFP fused to CD33

[6] = biological target: Biotinylated CD33 protein (UniProt P20138); assay: Octet competition on biotinylated CD33; competitor 348
CD33 on MOLM-13 cells = biological target: T4, CD33 on MOLM-13 cells (human, UniProt P20138 18-364); assay: FACS, MOLM-13 cells expressing CD33 against MOLM-13 CD33 knockout
T4 construct: whole, on cells; also called MOLM-13 cell line expressing CD33; wild-type MOLM-13 cells (CD33+)
From the text: A naïve llama phage library was panned and screened to identify single domain antibodies that specifically recognize CD33. A MOLM-13 cell line expressing CD33 was used as a CD33-positive cell line, and a MOLM-13 cell line harboring a knockout of CD33 was used as a CD-33 negative cell line. A purified anti-human CD33 antibody was used as a positive control. Specific binding activity of identified binders was confirmed by FACS. The heavy chain variable region sequences of the identified binders are included herein.

[7] = biological target: CD33-GFP fusion protein, wild type (WT), on 293FT cells (UniProt P20138); assay: FACS, WT CD33-GFP on 293FT cells
[8] = biological target: Biotinylated CD33 protein (UniProt P20138); assay: Octet competition on biotinylated CD33; competitor 353
[9] = biological target: Biotinylated CD33 protein (UniProt P20138); assay: Octet competition on biotinylated CD33; competitor 413
[10] = biological target: Biotinylated CD33 protein (UniProt P20138); assay: Octet competition on biotinylated CD33; competitor 389
[11] = biological target: Biotinylated CD33 protein (UniProt P20138); assay: Octet competition on biotinylated CD33; competitor 426
[12] = biological target: Mutant CD33-GFP N20D on 293FT cells (UniProt P20138); assay: FACS, mutant CD33-GFP on 293FT cells
[13] = biological target: Mutant CD33-GFP M16 (4889AII) on 293FT cells (UniProt P20138); assay: FACS, mutant CD33-GFP on 293FT cells
[14] = biological target: Mutant CD33-GFP M19 (348ATAI) on 293FT cells (UniProt P20138); assay: FACS, mutant CD33-GFP on 293FT cells
[15] = biological target: Mutant CD33-GFP M18 (353AAL) on 293FT cells (UniProt P20138); assay: FACS, mutant CD33-GFP on 293FT cells
[16] = biological target: Mutant CD33-GFP M9 (Y49, 50A) on 293FT cells (UniProt P20138); assay: FACS, mutant CD33-GFP on 293FT cells
[17] = biological target: Mutant CD33-GFP M17 (F21Y) on 293FT cells (UniProt P20138); assay: FACS, mutant CD33-GFP on 293FT cells
[18] = biological target: Mutant CD33-GFP M13 (R91E) on 293FT cells (UniProt P20138); assay: FACS, mutant CD33-GFP on 293FT cells
[19] = biological target: Mutant CD33-GFP M12 (G88S) on 293FT cells (UniProt P20138); assay: FACS, mutant CD33-GFP on 293FT cells
[20] = biological target: Mutant CD33-GFP JS23 (L23N) on 293FT cells (UniProt P20138); assay: FACS, mutant CD33-GFP on 293FT cells
[21] = biological target: Mutant CD33-GFP M15 (Q171A) on 293FT cells (UniProt P20138); assay: FACS, mutant CD33-GFP on 293FT cells
[22] = biological target: Mutant CD33-GFP JS24 (Q24E) on 293FT cells (UniProt P20138); assay: FACS, mutant CD33-GFP on 293FT cells
[23] = biological target: Mutant CD33-GFP M11 (L78T) on 293FT cells (UniProt P20138); assay: FACS, mutant CD33-GFP on 293FT cells
[24] = biological target: Mutant CD33-GFP M4 (R122D) on 293FT cells (UniProt P20138); assay: FACS, mutant CD33-GFP on 293FT cells
[25] = biological target: Mutant CD33-GFP M5 (AEAD), quadruple mutant, on 293FT cells (UniProt P20138); assay: FACS, mutant CD33-GFP on 293FT cells
[26] = biological target: Mutant CD33-GFP M14 (E170R) on 293FT cells (UniProt P20138); assay: FACS, mutant CD33-GFP on 293FT cells
[27] = biological target: Mutant CD33-GFP M10 (Y127A) on 293FT cells (UniProt P20138); assay: FACS, mutant CD33-GFP on 293FT cells
[28] = biological target: Mutant CD33-GFP JS28 (S28L) on 293FT cells (UniProt P20138); assay: FACS, mutant CD33-GFP on 293FT cells
[29] = biological target: Mutant CD33-GFP JS25 (V25M) on 293FT cells (UniProt P20138); assay: FACS, mutant CD33-GFP on 293FT cells
[30] = biological target: Biotinylated CD33 protein (UniProt P20138); assay: Octet competition on biotinylated CD33; competitor 416
[31] = biological target: Biotinylated CD33 protein (UniProt P20138); assay: Octet competition on biotinylated CD33; competitor 420
[32] = biological target: T5, Mutant CD33-GFP M8 (K52A) on 293FT cells (UniProt P20138 18-364); assay: FACS, mutant CD33-GFP on 293FT cells
T5 construct: whole, on cells; not shown: GFP fused to CD33

[33] = biological target: T6, Mutant CD33-GFP M7 (R98D) on 293FT cells (UniProt P20138 18-364); assay: FACS, mutant CD33-GFP on 293FT cells
T6 construct: whole, on cells; not shown: GFP fused to CD33

[34] = biological target: T7, Mutant CD33-GFP M6 (F43N) on 293FT cells (UniProt P20138 18-364); assay: FACS, mutant CD33-GFP on 293FT cells
T7 construct: whole, on cells; not shown: GFP fused to CD33

[35] = biological target: Biotinylated CD33 protein (UniProt P20138); assay: Octet competition on biotinylated CD33; competitor 429
[36] = biological target: Biotinylated CD33 protein (UniProt P20138); assay: Octet competition on biotinylated CD33; competitor 430

Chain of Biotinylated CD33 protein (P20138 18-259 limits assumed): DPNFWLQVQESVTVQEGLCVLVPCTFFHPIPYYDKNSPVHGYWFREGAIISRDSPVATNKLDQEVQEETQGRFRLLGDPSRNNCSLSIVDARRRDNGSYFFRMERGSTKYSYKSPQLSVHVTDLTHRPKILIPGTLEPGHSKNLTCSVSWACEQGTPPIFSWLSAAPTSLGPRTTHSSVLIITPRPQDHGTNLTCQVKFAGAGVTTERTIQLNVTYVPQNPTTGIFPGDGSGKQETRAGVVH
Chain of Mutant CD33-GFP JS28 (S28L) on 293FT cells (P20138 18-364 S28L): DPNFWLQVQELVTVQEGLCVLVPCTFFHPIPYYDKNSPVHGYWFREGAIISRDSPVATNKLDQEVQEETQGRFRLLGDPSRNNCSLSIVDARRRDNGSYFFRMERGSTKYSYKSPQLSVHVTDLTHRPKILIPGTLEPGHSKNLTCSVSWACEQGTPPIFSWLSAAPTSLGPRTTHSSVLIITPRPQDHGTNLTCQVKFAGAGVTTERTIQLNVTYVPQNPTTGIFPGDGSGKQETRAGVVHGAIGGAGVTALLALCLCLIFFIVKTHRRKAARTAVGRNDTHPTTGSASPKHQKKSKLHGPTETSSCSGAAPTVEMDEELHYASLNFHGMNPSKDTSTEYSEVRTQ
T7 sequence (P20138 18-364 F43N): as the sequence (P20138 18-364 S28L) above, with L11S, F26N counted along it
Chain of Mutant CD33-GFP M13 (R91E) on 293FT cells (P20138 18-364 R91E): as the sequence (P20138 18-364 S28L) above, with L11S, R74E counted along it
Chain of Mutant CD33-GFP N20D on 293FT cells (P20138 18-364 N20D): as the sequence (P20138 18-364 S28L) above, with N3D, L11S counted along it
Chain of Mutant CD33-GFP M14 (E170R) on 293FT cells (P20138 18-364 E170R): as the sequence (P20138 18-364 S28L) above, with L11S, E153R counted along it
Chain of CD33-GFP fusion protein, wild type (WT), on 293FT cells (P20138 18-364): as the sequence (P20138 18-364 S28L) above, with L11S counted along it
T4 sequence (P20138 18-364): as the sequence (P20138 18-364 S28L) above, with L11S counted along it
Chain of Mutant CD33-GFP M17 (F21Y) on 293FT cells (P20138 18-364 F21Y): as the sequence (P20138 18-364 S28L) above, with F4Y, L11S counted along it
Chain of Mutant CD33-GFP M4 (R122D) on 293FT cells (P20138 18-364 R122D): as the sequence (P20138 18-364 S28L) above, with L11S, R105D counted along it
Chain of Mutant CD33-GFP JS23 (L23N) on 293FT cells (P20138 18-364 L23N): as the sequence (P20138 18-364 S28L) above, with L6N, L11S counted along it
T1 sequence (P20138 18-364 N99A): as the sequence (P20138 18-364 S28L) above, with L11S, N82A counted along it
T6 sequence (P20138 18-364 R98D): as the sequence (P20138 18-364 S28L) above, with L11S, R81D counted along it
Chain of Mutant CD33-GFP M9 (Y49, 50A) on 293FT cells (P20138 other isoform, or with tags, fused parts or gaps mutant): as the sequence (P20138 18-364 S28L) above, with L11S, Y32A, Y33A counted along it
Chain of Mutant CD33-GFP M5 (AEAD), quadruple mutant, on 293FT cells (P20138 other isoform, or with tags, fused parts or gaps mutant): as the sequence (P20138 18-364 S28L) above, with W5A, L11S, H28E, N82A, R105D counted along it
Chain of Mutant CD33-GFP JS25 (V25M) on 293FT cells (P20138 18-364 V25M): as the sequence (P20138 18-364 S28L) above, with V8M, L11S counted along it
T2 sequence (P20138 18-364 H45E): as the sequence (P20138 18-364 S28L) above, with L11S, H28E counted along it
Chain of Mutant CD33-GFP JS24 (Q24E) on 293FT cells (P20138 18-364 Q24E): as the sequence (P20138 18-364 S28L) above, with Q7E, L11S counted along it
Chain of Mutant CD33-GFP M11 (L78T) on 293FT cells (P20138 18-364 L78T): as the sequence (P20138 18-364 S28L) above, with L11S, L61T counted along it
T5 sequence (P20138 18-364 K52A): as the sequence (P20138 18-364 S28L) above, with L11S, K35A counted along it
Chain of Mutant CD33-GFP M10 (Y127A) on 293FT cells (P20138 18-364 Y127A): as the sequence (P20138 18-364 S28L) above, with L11S, Y110A counted along it
Chain of Mutant CD33-GFP M15 (Q171A) on 293FT cells (P20138 18-364 Q171A): as the sequence (P20138 18-364 S28L) above, with L11S, Q154A counted along it
Chain of Mutant CD33-GFP M12 (G88S) on 293FT cells (P20138 18-364 G88S): as the sequence (P20138 18-364 S28L) above, with L11S, G71S counted along it
T3 sequence (P20138 18-364 W22A): as the sequence (P20138 18-364 S28L) above, with W5A, L11S counted along it

Binder	Octet signal [1]	Octet signal [2]	FACS binding data [3]	FACS binding data [4]	FACS binding data [5]	Octet signal [6]	binding result (CD33 on MOLM-13 cells)	FACS binding data [7]	Octet signal [8]	Octet signal [10]	Octet signal [11]	FACS binding data [12]	FACS binding data [13]	FACS binding data [14]	FACS binding data [15]	FACS binding data [16]	FACS binding data [17]	FACS binding data [18]	FACS binding data [19]	FACS binding data [20]	other results
B1	0.136	-0.377	99.3	99.3	99.4	-0.212	binds	97.6	-0.112	0.0436	-0.227	97.5	97.4	99.8	99.4	1.01	96.1	98.7	98.5	99.2	Octet signal [9]: -0.108; FACS binding data [21]: 97.2; FACS binding data [22]: 99.6; FACS binding data [23]: 73.8; FACS binding data [24]: 98.4; FACS binding data [25]: 0.79; FACS binding data [26]: 97.4; FACS binding data [27]: 94.2; FACS binding data [28]: 99.7; FACS binding data [29]: 99.7; Octet signal [30]: -0.268; Octet signal [31]: -0.169; FACS binding data [32]: 97.1; FACS binding data [33]: 98.5; FACS binding data [34]: 98.8; Octet signal [35]: -0.29
B2	0.648	-0.0796	96.8	5.93	76.4	-0.024	binds	98	0.248	0.483	0.0667	56.7	98.3	99.3	49.2	0.79	84.6	98.5	98.6	98.4	Octet signal [36]: 0.63; FACS binding data [21]: 98.6; FACS binding data [22]: 97; FACS binding data [23]: 58.5; FACS binding data [24]: 76; FACS binding data [25]: 0.81; FACS binding data [26]: 98.2; FACS binding data [27]: 90.2; FACS binding data [28]: 99.4; FACS binding data [29]: 99.5; Octet signal [30]: -0.0586; Octet signal [31]: 0.15; FACS binding data [32]: 91.4; FACS binding data [33]: 97; FACS binding data [34]: 97.5; Octet signal [35]: -0.0887
